Experimental data reported in publication PMC4117790, “HRAS is silenced by two neighboring G-quadruplexes and activated by MAZ, a zinc-finger transcription factor with DNA unfolding property”.

How the values were obtained:
[1] = molecular target: T1, MAZ-GST (UniProt P56270 1-477); assay: double-filter binding; 100 mM KCl, 50 uM Zn acetate; Hill n = 1.4 ± 0.2; EMSA/filter: 20 mM Tris-HCl pH 8, 8% glycerol, 100 uM MgCl2, 50 uM Zn acetate, 1 mM DTT, 2.5 ng/ul poly dIdC, 1 mM Na3VO4, 5 mM NaF, KCl as stated (100 mM for filter binding); EMSA gel 20 C, filter 4 C 30 min; FRET: 50 mM Tris-HCl pH 7.4, 50 uM Zn acetate, 50 mM KCl, 37 C; conditions: protein: recombinant; tags: GST; label: 32P; parallel intramolecular G4
T1 sequence: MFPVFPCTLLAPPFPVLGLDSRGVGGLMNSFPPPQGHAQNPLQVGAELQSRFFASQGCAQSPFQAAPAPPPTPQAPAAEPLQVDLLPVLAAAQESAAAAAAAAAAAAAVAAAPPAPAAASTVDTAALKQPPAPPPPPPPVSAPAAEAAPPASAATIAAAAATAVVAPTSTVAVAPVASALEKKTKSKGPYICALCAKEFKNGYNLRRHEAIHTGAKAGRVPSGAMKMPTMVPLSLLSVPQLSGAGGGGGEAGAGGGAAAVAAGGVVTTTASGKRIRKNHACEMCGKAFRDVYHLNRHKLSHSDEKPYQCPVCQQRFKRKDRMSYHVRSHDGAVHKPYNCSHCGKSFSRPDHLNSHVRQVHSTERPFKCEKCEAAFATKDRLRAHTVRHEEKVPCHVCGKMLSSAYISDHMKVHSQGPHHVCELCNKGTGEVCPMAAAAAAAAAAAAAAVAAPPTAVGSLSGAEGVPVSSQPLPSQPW

[2] = molecular target: T1, MAZ-GST; assay: double-filter binding; 100 mM KCl, 50 uM Zn acetate; Hill n = 1.6 ± 0.3; EMSA/filter: 20 mM Tris-HCl pH 8, 8% glycerol, 100 uM MgCl2, 50 uM Zn acetate, 1 mM DTT, 2.5 ng/ul poly dIdC, 1 mM Na3VO4, 5 mM NaF, KCl as stated (100 mM for filter binding); EMSA gel 20 C, filter 4 C 30 min; FRET: 50 mM Tris-HCl pH 7.4, 50 uM Zn acetate, 50 mM KCl, 37 C; conditions: protein: recombinant; tags: GST; label: 32P; antiparallel intramolecular G4

**Q.** How did the Kd [1] turn out when CGGGGCGGGGCGGGGGCGGGGGCG (structured_DNA) [hras-2 quadruplex] was run?
**A.** 207 ± 12 nM

**Q.** How did the Kd [2] turn out when TCGGGTTGCGGGCGCAGGGCACGGGCG (structured_DNA) [hras-1 quadruplex] was run?
**A.** 504 ± 84 nM
